Among the data in patent US5821104 are specific activity (release of pNA in the TPAP assay) values, retold here.

The target of this test is Phe-Pro-Ala-pNA.

The substance “Aspergillus niger tripeptidyl aminopeptidase (TPAP) (enzyme)” came in with a specific activity (release of pNA in the TPAP assay) of 27 µmol/min/mg.
